T1: Boi1 SH3 (BOI1_YEAST), P38041
T1 chain: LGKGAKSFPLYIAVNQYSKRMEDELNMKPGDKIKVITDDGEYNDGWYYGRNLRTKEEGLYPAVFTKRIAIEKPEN

T2: Rvs167 SH3 (RV167_YEAST), P39743
T2 chain: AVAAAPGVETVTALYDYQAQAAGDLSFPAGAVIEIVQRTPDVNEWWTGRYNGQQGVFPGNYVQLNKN

T3: Yhr016c SH3 (YSC84_YEAST), P32793
T3 chain: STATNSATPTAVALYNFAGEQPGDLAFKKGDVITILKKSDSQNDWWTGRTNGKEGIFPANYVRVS

T4: Boi2 SH3 (BOI2_YEAST), P39969
T4 chain: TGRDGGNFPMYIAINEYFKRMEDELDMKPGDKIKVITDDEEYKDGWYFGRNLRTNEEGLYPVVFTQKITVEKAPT

T5: Yfr024 SH3 (LSB3_YEAST), P43603
T5 chain: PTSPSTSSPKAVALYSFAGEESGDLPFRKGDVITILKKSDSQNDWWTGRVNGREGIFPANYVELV

T6: Myo5 SH3 (MYO5_YEAST), Q04439
T6 chain: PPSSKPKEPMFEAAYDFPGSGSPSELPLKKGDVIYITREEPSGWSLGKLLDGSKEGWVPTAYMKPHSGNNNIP


How the values were obtained:
Test in all cases: SPOT array
[1] = molecular target: T1, Boi1 SH3 (BOI1_YEAST), P38041
[2] = molecular target: Sho1 SH3 (SHO1_YEAST), P40073
Chain of Sho1 SH3 (SHO1_YEAST), P40073 (P40073 295-366): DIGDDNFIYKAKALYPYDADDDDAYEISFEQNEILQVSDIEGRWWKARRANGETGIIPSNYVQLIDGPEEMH

[3] = molecular target: T2, Rvs167 SH3 (RV167_YEAST), P39743
[4] = molecular target: T3, Yhr016c SH3 (YSC84_YEAST), P32793
[5] = molecular target: T4, Boi2 SH3 (BOI2_YEAST), P39969
[6] = molecular target: T5, Yfr024 SH3 (LSB3_YEAST), P43603
[7] = molecular target: T6, Myo5 SH3 (MYO5_YEAST), Q04439

| Binder | normalised SPOT signal, Boehringer light units (BLU); mean over the file's lines of this peptide [1] | normalised SPOT signal, Boehringer light units (BLU); mean over the file's lines of this peptide [2] | normalised SPOT signal, Boehringer light units (BLU); mean over the file's lines of this peptide [3] | normalised SPOT signal, Boehringer light units (BLU); mean over the file's lines of this peptide [4] | normalised SPOT signal, Boehringer light units (BLU); mean over the file's lines of this peptide [5] | normalised SPOT signal, Boehringer light units (BLU); mean over the file's lines of this peptide [6] | normalised SPOT signal, Boehringer light units (BLU); mean over the file's lines of this peptide [7] |
| --- | --- | --- | --- | --- | --- | --- | --- |
| NTINKSNPQGPSDN [YMR067C 383-396] | 310 | 57.6 | 93.5 | 46.5 | 30.9 | 163 | 76.2 |
| NSVIRGSPGLPDTL [YPL066W 13-26] | 228 | 35.5 | 251 | 296 | 35 | 241 | 151 |
| PDLNKRPPREPIEF [YDR195W 471-484] | 114 | 69.6 | 27.8 | 4.6 | 10.6 | 268 | 192 |
| PANPKILPKIPSGA [YPL137C 1165-1178] | 158 | 16400 | 34.3 | 5.1 | 0.9 | 93.9 | 164 |
| NYHHRETPPPPPSN [YPL055C 201-214] | 58.5 | 70 | 129 | 178 | 59.3 | 323 | 318 |
| PESAKSNPNSPRLK [YOR231W 8-21] | 618 | 69.5 | 80.9 | 31.8 | 0 | 89.7 | 253 |
| NTLLKVVPQEPTAV [YPR029C 360-373] | 1110 | 75.6 | 62.5 | 311 | 62.6 | 116 | 154 |
| PELAKNSPLAPIKK [YLL021W 1081-1094] | 685 | 54.8 | 31.5 | 14.6 | 0 | 69.3 | 125 |
| NTIIKLFPYIPIPV [YLR142W 90-103] | 88.2 | 42.7 | 60.5 | 211 | 29.7 | 84.5 | 204 |
| PFLIKFTPKFPQSI [YMR156C 9-22] | 65 | 97.2 | 147 | 27.7 | 0 | 116 | 974 |
| NTIIKFDPGRPIYN [YKL178C 251-264] | 49.7 | 144 | 72.3 | 10.4 | 17.6 | 63.3 | 272 |
| PFIRRYTPLKPITK [YKR093W 410-423] | 529 | 59 | 585 | 91.6 | 67.8 | 624 | 649 |
| NTVEKLQPGLPVII [YBR056W 255-268] | 41 | 2.8 | 16.6 | 12 | 33.2 | 33.6 | 280 |
| NVLLKAKPNDPAAT [YGR123C 104-117] | 1780 | 126 | 121 | 310 | 29.5 | 63.4 | 156 |
| PSKKKSKPKVPAKN [YNL106C 1153-1166] | 383 | 483 | 36.2 | 62 | 32.8 | 565 | 580 |
| PEWRRPHPNIPDAK [YJR035W 269-282] | 1280 | 9.9 | 94.1 | 145 | 40.3 | 1150 | 183 |

From article PMC314469, “Protein Interaction Networks by Proteome Peptide Scanning” (PLoS Biology, 2004)
